Among the data in US20130260436A1, “Methods of Identifying and Characterizing Natural Product Gene Clusters” (Victoria LInk Limited, priority 2010, published 2013) are IC50 (carrier protein competition with BpsA for limiting CoA), kcat/Km (estimate derived from IC50) (Min^-1 · µM^-1) and IC50 values, retold here.

Experiment [1] has as its target PP1183, putative phosphopantetheinyl transferase of Pseudomonas putida KT2440 (Pseudomonas putida KT2440). In words: cell-based or functional assay.
For experiment [2], the target named is PcpS, phosphopantetheinyl transferase of Pseudomonas aeruginosa PAO1 (Pseudomonas aeruginosa PAO1). In words: cell-based or functional assay.
In experiment [3] the target is Sfp, phosphopantetheinyl transferase of Bacillus subtilis subsp. spizizenii ATCC6633 (Bacillus subtilis subsp. spizizenii ATCC6633). In words: cell-based or functional assay.
The next experiment deals with PcpS (Pseudomonas aeruginosa, UniProt Q9I4H2). In words: Carrier protein (CoA) competition assay with PcpS. In kind it is biochemical, P. aeruginosa PAO1. The following applies: competition with BpsA for limited CoA (250 nM), read-out: IC50 for carrier protein mediated inhibition of BpsA activation. The source says: (§1) Another aspect of the invention described is a CoA competition assay for PPTase characterization. Assays of this type consist of two phases. In the first phase is the competition phase in which apo-BpsA and a purified carrier protein (CP) to be characterized compete for a limited pool of CoA which is attached to either the CP to be characterized or apo-BpsA by a PPTase. During this first phase, only the substrates necessary for phosphopantetheinylation are present. Following the competition phase, the production phase is initiated. In the production phase, the substrates required for pigment synthesis by holo-BpsA (L-gln and ATP) are added to reaction vessels and the velocity (A590/s) of the resulting reaction measured. […]
(§2) One limitation of the approach outlined above for determination of PPTase kinetic parameters is that it only provides information about a PPTase of interest with a single carrier protein substrate (that of BpsA). […] Four carrier proteins were employed in assessed using this assay, these were: The peptide carrier protein of BpsA (bPCP), the peptide carrier protein of the first module of the Pseudomonas aeruginosa NRPS PvdD (pPCP), the peptide carrier protein of the Microcysitis aeruginosa NRPS/PKS MycG (mPCP) and the aryl carrier protein from Nostoc punctiforme protein HetM (npArCP). […]

A further experiment has as its target Sfp (Bacillus spizizenii, UniProt G4NQW2). In words: Carrier protein (CoA) competition assay with Sfp. In kind it is biochemical, B. subtilis subsp. spizizenii ATCC6633. The following applies: competition with BpsA for limited CoA (250 nM), read-out: IC50 for carrier protein mediated inhibition of BpsA activation.
From the text: as §1, §2

The next experiment deals with PP1183 (Pseudomonas putida, UniProt Q88NM4). In words: Carrier protein (CoA) competition assay with PP1183. In kind it is biochemical, P. putida KT2440. The following applies: competition with BpsA for limited CoA (250 nM), read-out: IC50 for carrier protein mediated inhibition of BpsA activation.
From the text: as §1, §2

Chain of PP1183 (Q88NM4 entry or part of it): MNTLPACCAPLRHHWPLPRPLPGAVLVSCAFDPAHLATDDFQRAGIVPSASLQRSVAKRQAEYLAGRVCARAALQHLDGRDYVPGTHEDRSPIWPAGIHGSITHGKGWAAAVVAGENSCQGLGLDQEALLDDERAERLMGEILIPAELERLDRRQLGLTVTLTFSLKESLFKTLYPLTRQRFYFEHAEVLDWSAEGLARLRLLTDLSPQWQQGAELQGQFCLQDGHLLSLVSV
Chain of PcpS (Q9I4H2 entry or part of it): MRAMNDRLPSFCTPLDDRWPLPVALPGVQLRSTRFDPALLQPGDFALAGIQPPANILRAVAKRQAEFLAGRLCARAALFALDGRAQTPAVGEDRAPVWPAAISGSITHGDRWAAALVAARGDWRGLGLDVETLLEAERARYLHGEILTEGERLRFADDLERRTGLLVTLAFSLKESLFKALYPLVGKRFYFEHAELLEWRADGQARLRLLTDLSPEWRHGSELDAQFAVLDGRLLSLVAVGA
Chain of Sfp (G4NQW2 entry or part of it): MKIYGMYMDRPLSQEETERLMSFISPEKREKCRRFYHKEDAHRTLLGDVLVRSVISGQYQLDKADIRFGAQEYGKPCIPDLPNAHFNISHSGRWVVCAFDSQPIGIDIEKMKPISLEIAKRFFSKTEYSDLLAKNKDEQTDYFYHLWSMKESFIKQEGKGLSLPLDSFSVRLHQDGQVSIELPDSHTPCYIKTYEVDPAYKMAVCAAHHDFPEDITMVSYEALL

B1: The peptide carrier protein of BpsA (bPCP), purified recombinant His6 tagged (protein)
chain: FVAPRTETEKEIAAVWEKALRRENASVQDDFFESGGNSLIAVGLVRELNARLGVSLPLQSVLESPTIEKLARRLE
As a reminder, the IC50 is the concentration needed to halve the response being measured. For the molecule B1, the IC50 (carrier protein competition with BpsA for limiting CoA) in experiment [1] stood at 300 nM; in experiment [2], 710 nM; in experiment [3] it was 720 nM. The kcat/Km (estimate derived from IC50) (Min^-1 · µM^-1) in experiment [1] is 3.88; in experiment [2] it was 7.77; in experiment [3], 0.69. Further, the IC50 with PcpS amounted to 710 nM; in the experiment with Sfp, 720 nM; with PP1183, 300 nM.
